Consider one molecule from patent US20130052192A1 (Novo Nordisk, published 2013).

The target of the assay is T1, human CD62P (P-Selectin) on the surface of activated platelets (human, UniProt P16109 42-830).
T1 sequence: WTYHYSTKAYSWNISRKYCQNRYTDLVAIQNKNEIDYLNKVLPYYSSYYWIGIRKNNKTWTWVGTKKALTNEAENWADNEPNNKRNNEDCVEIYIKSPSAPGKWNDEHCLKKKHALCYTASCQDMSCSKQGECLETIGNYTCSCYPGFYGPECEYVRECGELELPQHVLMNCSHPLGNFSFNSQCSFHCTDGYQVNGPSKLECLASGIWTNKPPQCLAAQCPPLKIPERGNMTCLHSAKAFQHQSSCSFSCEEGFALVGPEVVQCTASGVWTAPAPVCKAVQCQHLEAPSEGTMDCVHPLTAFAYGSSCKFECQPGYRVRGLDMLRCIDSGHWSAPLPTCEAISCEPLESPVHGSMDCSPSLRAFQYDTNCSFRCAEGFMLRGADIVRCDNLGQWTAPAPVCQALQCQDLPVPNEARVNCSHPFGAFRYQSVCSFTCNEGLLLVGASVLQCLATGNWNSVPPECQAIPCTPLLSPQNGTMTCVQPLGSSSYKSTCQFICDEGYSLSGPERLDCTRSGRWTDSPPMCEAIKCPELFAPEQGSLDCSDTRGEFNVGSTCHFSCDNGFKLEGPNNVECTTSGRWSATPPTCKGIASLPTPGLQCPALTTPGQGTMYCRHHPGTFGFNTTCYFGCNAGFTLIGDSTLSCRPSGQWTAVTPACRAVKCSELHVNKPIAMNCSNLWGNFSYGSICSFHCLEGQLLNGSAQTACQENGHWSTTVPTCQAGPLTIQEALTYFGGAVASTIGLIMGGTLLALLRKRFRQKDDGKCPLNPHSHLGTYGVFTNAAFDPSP
The assay can be described thus: FACS on activated human platelets; sample incubated without Thrombin.

Protocol: In short, blood from healthy donors was drawn by venipuncture of the antecubital vein. […] Platelet preparations were produced by making a standard Platelet Rich Plasma (PRP). Here, anti-coagulated whole blood was centrifuged (200 g for 15 minutes) without brake. […] Platelets were washed and prepared for staining. […] 50-100,000 cells were used per well.

B1: EP-FpA-PB1.3 mAb construct, incubated without Thrombin (uncleaved) (antibody, human IgG4, V domains shown)
VH: EAQLQQSGPELVEPGASVKVSCKASGYTFTNYVMHWVKQKPGQGLEWIGFINPSNDGPKYNERFKNKATLTSDKSSSTAYMELSSLTSEVSAVYFCARARPGFDWYFDVWGAGTTVTVSS
VL: DIVMTQSQKFMSTSVGDRVSVTCKASQNVATNVVWYQQRPGQSPKALIYTASYRFSGVPERFSGSGSGTDFTLTITNVQSEDLADYFCQQYNNYPYTFGGGTKVEIQR
notes: also called Sample 2
For B1, the binding result is “no binding”.
